The record followed here is the supplement of paper PMC12636428.

The subject of this data set is Saccharomyces cerevisiae. The data set is described as follows: transcriptional activation domain activity (GFP:mCherry ratio, weighted mean of sorted bins, harmonized to initial dataset scale) (arbitrary fluorescence ratio units); higher = stronger transcriptional activation. To be noted: beta-estradiol 1 µM; induction time 4 h. Here is the method:
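53-aa protein tiles (fungal proteins plus yeast TF control tiles) fused C-terminally to a DBD-estrogen-binding domain-mCherry synthetic TF, integrated in S. cerevisiae (URA3 locus) with a GFP reporter. Cells were induced with 1 uM beta-estradiol for 4 h at 30 C, FACS-sorted into 8 bins by GFP:mCherry ratio and barcodes sequenced. Activity is the read-weighted mean bin fluorescence (GFP:mCherry), averaged over barcodes (median 12); tiles under 50 reads were discarded. New active-learning values were harmonized by linear fit onto the scale of the initial (Hummel et al.) dataset. The assay saturates at low and high signal.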

As to “RGDTAAPGAEDDVELHYVCFVKGGDGRLWELDGRRKGPLERGRLGEGEDVLSE”, the “transcriptional activation domain activity” value was found to be 27800.
For “WWLLGDSYESEIISLVILFQFWNNGALVNFGSAFRQAWWRNYLLVFVWSCFFI” the value was 17800; for “FIDAAGKGGELRWNPHNKRYHLVGAEEGGKEDALSAPNKPTKPNPVLVCIYGQ”, 69000.
As for “GAVNLSSNERVVFSCRGEVLESKFGRSSKLSPRTFVVTTSKFYIVVQMLVSGQ”, the figure is 37800; as for “ATEKEVKPKKAAAPKKAAAPKEKKEKVEKAEKAPKPKANAAKKVKKTASAPAV”, 20200; as for “MAAAPAAKACAQCNKAETVSGGSDGEEGSSNLHPCNMCKSVLYCSRDCKKAHG”, 8830.
As for “YTKTIATRNVANQTRLGKVRKSSVIVIAGNGHGRLGVGMAKSIEAPVATMAAT”, the figure is 56400.
In the case of “THSKKQHCDVCKHPYSFTKVYASDMPKQLPLLLVLRKLVQQFFSVLLFSIRAI”, the “transcriptional activation domain activity” value came to 45400.
For “AAFSGEGDPWPGVAREIDENGENVGLAASRPAPAFLRVLTAVRVRVRIAFAFV” the value was 54500; for “RQSTSRRSDPGPVSRVTELARSDQDTTTTKLVSRLRATAQIRVQVVLAIVFRH”, 53200; for “MAGRKRAAAEDTTEKRETRSSKVAKTEGTKTAGKAAKGTARLKARLIISLTIL”, 34500.
As for “FQTFYSNFKRKVLVWSLRFTNLTYNQPLVWHATFVYILALLSMPWFKAKFIPS”, the figure is 43800; as for “MAKKGSASTDKKAADKSDKKGKAKATTDDGEEKQAKGKGSLKAATAVNVRHIL”, 36900; as for “FFLRIAVEVLHIRIIWAIILVNVLFGFSYFMCAVLQCVPIPYIWKKYAANPPP”, 43200.
For “TRTLFMVPQLCCAFSSMWLYQILVAVSIYLTNHVGIMMVRVWSYCVAVYVLEV” the value was 69800; for “CMLRFVIWLCSKCVPYRSGVWEEFKFLLDHPRRCFTLLFPSSANWWLFWVLIL”, 59700.
In the case of “GAEAGAAVPGKRRNRRGRRGKKKKPGLANGAANGDGVEREDGENGEGEVPKEE”, the “transcriptional activation domain activity” value was determined as 52100.
Turning to “MMRKLAYFYALPEVQNSKVLQTIVKKGFVPLLIALIFPRVTEDQLRVVIRFCQ”, the “transcriptional activation domain activity” value is 50000.
As for “EMRHVILIVFIGMVGCWISQWVFWVGFLKLYSGQGYCPPRLGTLALNWILFSV”, the figure is 43200; as for “MFYNFLFSLFSLFHMLLLHQSLVSLSYPFFLPGNFPLSVTIFIIAPLSLFWFI”, 48900; as for “MCILSLFTAWAGLTLFTCIFSFFLLCIVNALLGQNGVGGLLTARRFNTILRVC”, 54400.
In the case of “LCNVLRLYFYLLYFIFYRNLFARLRDVEQFAMIQIASSVWVTILYPMRMTRPV”, the “transcriptional activation domain activity” value came out at 72900.
For “AQQPQKKPGAPKPKGAVRAKSGCYTCRIRRKKCDENPNAEGACQTCVRLRLQC” the value was 66200; for “IGSLLCERADVIARLVSYLLRRYAIDGFRTILLWLNDWPVGLKLNYHLASHFC”, 56800; for “MKTINILTTPPLHIFFSTPIVYSLFLLLNFFPIFFFFFFFFLYSLPFFFFIVA”, 52100.
With “RKTKFPILLSGDGYIHFGFLYAVIPNLNIMAMSYVAVINNVRVVAYLCLWMSL”, the “transcriptional activation domain activity” value worked out at 50800.
Consider “DSRRKRNTSSEEDEPKKTDREERRREYRSRDHNVADEERSNKHRSSRRKHRSA”, for which the “transcriptional activation domain activity” value is 7300.
Consider “EADEEAAKAEHVHAPGEGGEGEGGGGPRRLEGKEGEREQKEIERQKKAEKDEK”, for which the “transcriptional activation domain activity” value turned out to be 44400.
With “SSGGEKGGAKETEKTPKWYVDGIRYGRATDMKLVKHLISLRVHLSTASLVWIE”, the “transcriptional activation domain activity” value came out at 86800.
For “YLIRLILVILLMEFMLHYIYVQALCKSKNFENYTPYQLLMISFFSLKFIWLKL” the value was 58900; for “AAPTETAPPAAEPAPVAAPIETKAAEPAAPVTEAPATTATEEVKPAVEPAKTE”, 49400; for “MMHLSIRDEQKVSLCLTIYLFIFFFFFLILFLWLEGVYLFFLLMTFFLRPYSS”, 43800.
For the sequence “EYDEDAARRIAERVHARAIGLTCGAAPPQVGGRSCASAVWSPIRVAVSTVCIQ”, the “transcriptional activation domain activity” value amounted to 44700.
As for “VENPVTDDNGNLKLELPDNLDNADFSKLLEFDAKNDEALFNSNELLSHTMDPV”, the figure is 94700; as for “MVRGLFLCFLFSCPWRLLSCCLFLQIFLFSLHLFALKIYVSFFLVHFHACFWA”, 60900.
As for “ARGEKNPPMTQKDLATKVNEKPSVINDYESGRAVPDQKVLAKLERALGVKLRG”, the figure is 50400; as for “VVSFFVILGYMLLYRMRSTQLWSNRSTSSFGERPKPPIVAYRSIIIRIGLRKL”, 67300; as for “KTDKSKDRKTKKKKSHKATGSERPSSSRGEEPEKDEEPEKKEKRRKKRKEEKR”, 17900.
“RLYMLCTKIFLLLVGQRSEVGLTYASCITFMLCAAIPSESFVRNLVLLRVMLA”: the “transcriptional activation domain activity” value is 58400.
As for “EAEEEESEKKDKKRKKDKEGKKKKKSKSSEEKETEEEKVEEKKSEESSESKKD”, the figure is under 6570; as for “VEEVLEKRAHRGPAGRSVEEEDEDVEEVLEKRAHRGPAGRSVEVEEKRAHRGP”, 29700.
As for “MACLVSGIGWCLLYFTCMYLLLIYYILSLFYPPLASCNSFSFFFLSFFFFAGR”, the figure is 59100; as for “CLRVRGVLILTIERLLNDFADAEYRKYAKAILHCHQPYPNSSDCYCQILRSLV”, 36900; as for “NKWLNVIQKFLKELDGRDKLMKTIQYFIKILLHYKMARAKHWSSLTSHLSMTR”, 66400.
For “PLFSILFSLSSFLSLPCPAHGCGPVGSWWSCLFLLFFFLSLLVMLSLLWCFGF” the value was 41000.
For the sequence “LCREVIIGGILGGILVFLVISLFFLIGHFFLFFVVLFLLLFNTTLCSLLVEVL”, the “transcriptional activation domain activity” value came out at 18900.
As for “AIEEIRQDNESRQRENRVVYDRTDKDNERNESLNHQQGIRLVIIDSIHQPVTT”, the figure is 45700; as for “PFLLLLPVSLFSFLFFHFFYLFVSFSFFLFCYFFYFLHFFLTFLIFLLFLTFL”, 34900; as for “FEHKELKLCPYFNFTFCVYFRLSNPFAKQYHITPTCFCGQNVTINRTYREGKN”, 62800.
As for “KIHLVNIAQVVVFFIYRFLYGLIPLFEISTCAYYPLLVSLWHLDYLLFYTVMF”, the figure is 64000; as for “MLVSVANLHYFFFPLSFGVCVLRYSSLAMCFFCIYCCLVTMLCILLLLLWSTI”, 39800; as for “LLDELMNQTKVLQETLDFSLVTPTPHHNDDYKIHGSAYPGGETPAQQHEKLSY”, 35700.
On to “QITNRILPSPAAVRYSGLIPLLVLVLVLPLFFLFFLFFFFFLFLFLFFLVLLY”, for which the “transcriptional activation domain activity” value was found to be 58800.
As for “TVKNLYLFIIITTVNVVVLLICVAHFALVFMSRAGLSLHARQLTALMHAKFTH”, the figure is 49000.
For “MFRPYSKFVLPSFFDIVLIYIFQEFGREALIWCQLCLQRVLPFLGLYHMGEML” the value was 38500; for “VKPRPLPLPVLIAKALREKGLVYFFRSVRVSGSGTAEVVRGKWYMNFLPTLAR”, 73200; for “MSLKEKLSIIHMKIRHRIEMTILLLHIFSIPLCLSFFMLCCSFPFFWPFVILY”, 77600.
As for “RDCQWCAQLVRRTAIVAFNATNAVLNANMYVFVCIFLIAWLVVWKTWLWSVAL”, the figure is 38300; as for “MARQPSAPNAASDRGAATTTPRKPTTRSRTGCSACRKRRTKCDEARPACGHCV”, 44600; as for “EDASAGEGEEKKKRKKKKVEASSDEEGSGSDGSKRKSQSKRTKSSKKGRSDNG”, 40700.
Consider “KPKVKKDADDDAMDVDEEEKPKPKPKPRPKPKATSSPKEGEEDEPAKKKLKTS”, for which the “transcriptional activation domain activity” value was found to be 51400.
Regarding “SGFRDNRKDNRGRGRDRGNRRDNRGNDRNREREDKEKAESKDVKSEDAPVKTE”, the “transcriptional activation domain activity” value came out at 28100.
As for “VPLCVAVLLLLAPHPSILHVLLNYHYLTLHAPGYFVVHLLIIYALYFLAFSSL”, the figure is 34000.
As for “ILHELTIVVACHRWNHGLFFFFQMMQIPIIMYSDKIPWFRDQHALRNWCFWLA”, the figure is 58000; as for “FGRSKAKRRAGRGFGTSGYGAGSSASNGGKDAKGGDTKGAENRYHDNKDEDND”, 38200; as for “ASSYAVQHTRKKGRGGGGGEAGNKPANKAARSWDKNAELHGTQGKMHVTIAVT”, 85900.
Consider “MMLPLVQGWGSTDGFFIFIFIFFIFAFLFNLSIYRSFFFLPFLFFYMEVLLRL”, for which the “transcriptional activation domain activity” value stood at 73300.
Turning to “EDEEESSKEETEKQRNKLRELIYEFIAKDVASRVELAKYWLSEEWNCAVGPQT”, the “transcriptional activation domain activity” value was found to be 35300.
On to “RQLVLLQKAEVDLFYMTVALILICALCAGLCLNIAIQARGTTLLTNWTQLEFC”, for which the “transcriptional activation domain activity” value is 58300.
Turning to “QHNASQPGDLHSVLHRNQREGQHSVNQLVDRHSESQRGGQHNVNQQRDLQHGN”, the “transcriptional activation domain activity” value was determined as 33400.
For “KEEETKPEEAAATEATPEATTEPAAEGAEAPKEEAKTDAAAETKKEDRPKSPG” the value was 20500.
